A short description of the data set: yeast display, Sf9 membrane polyspecificity reagent, FACS + sequencing; frameworks hold sequencing errors. In short, it runs like this:
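In a synthetic yeast display library (Saccharomyces cerevisiae BJ5465), nanobody expression was induced with galactose for 36–48 hours. FACS gates were set low and high (top ~1%) using anti-HA fluorescence for expression and streptavidin fluorescence for binding of the Sf9 membrane reagent. Each polyreactivity label is drawn from the gate of origin.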
Consider “QVQLVESGGGLVQAGGSLRLSCAASGRIFNYYAMGWYRLAPGKERELVAAINSGGSTYADSVKGRFTISRDNAKNTVYLEMNSLKPEDTAVYYCANDGQLQSGRERPSGYDHWGQGTQVTVSS”, for which the “polyreactivity (PSR sort gate)” value is reported as “low polyreactivity”. For “QVQLVESGGALVQAGGSHRLSCAASGRIFAGNAMGWYRMAPGKEMELLAAISKSGGSTYYADSVKGRFTISRDNAKNTVYLQMNSLKAEDTAVSYCAKLYYPVSDQYDYYYWGPGTQVTVSS”, the “polyreactivity (PSR sort gate)” value is given as “low polyreactivity”. As to “QVQLVESGGGLVQAGGSLRLSCAASGSIFRYNTMGWYRQATGKERELDATITRRGGSTYYADSVKGRFTISRDNAKNTVYLQMNSLKPEDTAVYYCNADNFGGPFNYWGQGTQVTVSS”, the “polyreactivity (PSR sort gate)” value was “low polyreactivity”. With “QVQLVESGGGLVQAGGSLRLTCAASGSTFYPYAMGWYRQAPGKERELVAAISSGGSTYYADSVKGRFTISRDNAKNSVYLQMNSLKPEDTAVYYCAADFYYAYYWGQGTQVTVSS” the entry was “low polyreactivity”; with “QVQLVESGGGLVQTGGSLRLSCAASGRIFRYYDMGWYRQAPGKEREFVAAITRSGAITYYADSVKGRFTISRDNAKNTVYLQMNSLKPEDTAVYYCFAVRHYALYAGRPYDYWGQGTQVTVSS”, “low polyreactivity”. “QVQLVESGGGLVQAGGSLRISCAASGSIFYVYAMGLYRQAPGKERELVAAISRRGARTYYADSVKGRFTISRDNAKNTVYLQMNSLKPEDSAVYYCNADQYYTVGYSAEYEYWGQGTQVTVSS”: the “polyreactivity (PSR sort gate)” value was “low polyreactivity”. For the sequence “QVQLVESGGGLVQAGGSLRLSCAAYGYTFGYYTMGWYRQAPWKERQLVASIDSGGGTNYADSVKGRFTISRDNAKNTVYLQMNSLKPEDTAVYYCAAESPLYWVDDFESGWRYYYWGQGTQVTVSS”, the “polyreactivity (PSR sort gate)” value is listed as “low polyreactivity”. As for “QVQLVESGGGLVQAGGSLRLSCAASGSTFWYNAMGWYRQAPGKERELVAAISRSGATTYYADSVKGRFTISRDNAKNTVYLQMNSLKPEDTAVYYCNAVISPSSYVRNSDYWGQGTQVTVSS”, the “polyreactivity (PSR sort gate)” value was “low polyreactivity”. On to “QVQLQESGGGLVQAGGSQRLSCAASGYIFYFQYMGWYRQAPGKEREFVAAISDGANTNYADSVKGRFTISRDNAKNTEYLQMNSLKPEDTAVYYCAAGLSTGTIAYGYNYWRQGTQVTVSS”, for which the “polyreactivity (PSR sort gate)” value is “low polyreactivity”.

As for “QVQLVESGGGLVQAGGSLRLSCAASGLTFYLNAMGWYRQAPGKERELVAGISYTGGSTYYADSVKGRFTISRDNAKNTVYLQMNSLKPEDTAVYYCARDNFYYGVWDYGYWGQGTQVTVSS”, the “polyreactivity (PSR sort gate)” value is on record as “low polyreactivity”.

On to “QVQLVESGGGLVQAGGSLRLSCAASGRTFAYNAMGWYRQAPGKERELVADITWSGDSTYYADSVKGRFTISRDNAKNTVYLQMNSLKPEDTAVYYCAADYFGGPSYEFDYWGQGTQVTVSS”, for which the “polyreactivity (PSR sort gate)” value is on record as “low polyreactivity”.

As for “QGQLVESGGGLVQAGGSLRLSCAASGSTFLHYAMGWYRQAPGKERELVAAISRRGGRTYYADSVKGRFTISRDNAKNTVYLQMNRLKPEDTAVYNCAVDGIRDGYWIFYYWGQGTQVTVSS”, the “polyreactivity (PSR sort gate)” value is “low polyreactivity”.

For the sequence “QVQLVESGGGLVQAGGSLRLSCAASGSTFTIYDMGWSRQAPGKERELVASISQGAGSTYYADSVKGRFTISRDNAKNTVYLQMNSQKPEDTAVYYCAADWYQSYVFVYWEGEYWAQGTQVTVSS”, the “polyreactivity (PSR sort gate)” value was “high polyreactivity”. In the case of “QVQLVESGGGLVQAGGSLRLSCAASGFTFAVYAMGWYRQAPGKEREFVADITYDGGSTYYADSVKGRFTISRDNAKNTVYLQMNSLKPEDTAVYYGAAERLGAFQTPSNVSKYYYWGQGSQVTVSS”, the “polyreactivity (PSR sort gate)” value was “low polyreactivity”. As for “QVQLVESGGGLVQAGGSLRLSCAASGSTLYHNAMGWYRQAPGKERELVAIINYSGDNTYYADSVKGRFTISRDNAKNTVFLQMNSLKPEDTAVYYCAADLYERGRQAWQYDYWGQGTQVTVSS”, the “polyreactivity (PSR sort gate)” value is “low polyreactivity”. Take “QVQLQESGSGQVQAGGSLRLSCAASGAIFPAYLMGWYRQAPGKERELVAGISYGSITYCADSVKGRFNISRDNAKNTVYLQMNSLKPEDTAVYYCAVWRPGGDEYYYWGQGTQVTVSS”: the “polyreactivity (PSR sort gate)” value is listed as “low polyreactivity”.

Regarding “QVQLVESGGGLVQAGGSLRLSCAASGSTILSNAMGWYRQAPGKERELVADITSGGSTYYADSVKGRFTISLDNAKNTVYLQMNSLKQEDTAVYYCAVRYYLRRYDYWGQGTQVTVSS”, the “polyreactivity (PSR sort gate)” value is on record as “low polyreactivity”. For the sequence “QVQLVESGGGLVHAGGSLSLSCAASGRTFRQYAMGWYRQAHGKERELVAAISKGGGSTYYADSEKGRFTISRDNAKNTVYLQMNSLKPEVKAVYYCNAPGYVLKGYDYWGQGTQVTVSS”, the “polyreactivity (PSR sort gate)” value is “high polyreactivity”. Consider “QVQLVESGGGLVQAVGSLRLSCAASGSTFDIYAMGWYRQAPGKERELVAAITSGGSTYADSVKGRFTISRDNAKNTVYLQMNSLKPEDTAVYYCNADRWFGNYLHLSFLNDYWGQGNQVTVSS”, for which the “polyreactivity (PSR sort gate)” value is “low polyreactivity”. “QVQLVESGGGLVQAGGSLRLSCAASGSIFRSYAMGWYRQAPGKERELVAAISSRSGSTYYADSVKGRFTISRDNAKNTVYLQMISLKPEDTAVYYCAAQHRHSYGYWGQGTQVTVSS”: the “polyreactivity (PSR sort gate)” value was “high polyreactivity”. With “QVQLVESGGGLVQAGRSLRLSCAASGSIFGWNAMGWYRQAPGKERELVAAINGGDRTNYADSVKGRFTISRDNAKNTVYLQMNSLNTEDTAVYYCGKDFYPTRPGWGGGEYNYWGQGTQVTVSS”, the “polyreactivity (PSR sort gate)” value is recorded as “low polyreactivity”. For the sequence “QVQLVESGGGLVQAGGSLRLSCAASGNIFDTNAMGWYRQAPGKERELVATITQRGGTTYYADSVKGRFTISRDNAKNTVYLQINILKPEDTAVYYCNAGPVRLPYDSWGQGTQVTVSS”, the “polyreactivity (PSR sort gate)” value is reported as “low polyreactivity”. With “QVQLVESGGGLVQAGGSLRLSCAASGRTYGGYAMGWYRQAPGKERELVAVINWRGGSTYYADSVKGRFTISRDNAKHTVYLQMNILKPEDTAVYYCNKVSLRTQSAQFHYWGQGTQVTVSS”, the “polyreactivity (PSR sort gate)” value is “high polyreactivity”. On to “QVQLVESGGGLVQAGGSLRLSCAASGSIFRAYAMGWYRQAPGKERELVAAISWGGGSTSYADSVKGRFTLSRDNAKNTVYLQMNSLNPEDTAVYYCNKVSLSKRRDYYWGQGTQVTVSS”, for which the “polyreactivity (PSR sort gate)” value is reported as “high polyreactivity”. With “QVQLVESGGGLVQAGGSLRLSCAASGSIIWYYAMVWYRQAPGIERELGAAMTGTGGNTYYADSVKGRFTLSRDNAKNTVYLQMNSLKPEDTAVYYCDVRAYPSYPRGVYAYYYWGHGTQVTVSS”, the “polyreactivity (PSR sort gate)” value was “high polyreactivity”. For “QVQLVESGGGLVQAGGSLRLSCAASGRTFYKYGMVLYRKAPGKERELVAAIRWSGGSTYYADSVKGRFTISRDNAKYTVYFQMNSLKPEDTAVYYCATRSGFGYGYWGQGTQVNVSS”, the “polyreactivity (PSR sort gate)” value is “high polyreactivity”. In the case of “QVQLVESGGGLVQPGGSLRLSCAASGRTFYEYAMGWYRPAPGKERELVAGITSGGSTNYADSVKGRFTISRDNAKNTVYLQMNSLKPEDTAVYYCAASYWGYEYDYWGQGTQVTVSS”, the “polyreactivity (PSR sort gate)” value is recorded as “low polyreactivity”. With “QVQLVESGGGLVQAGGSLRLSCAASGITFQYYAMGWYRQAPGKERELVAAITSSGVSTYYADSVKGRFTISRDNAKNTVYLQMNSLKPEDTAVYYCNTVVRGWSSSAYDYWGQGTQVTVSS”, the “polyreactivity (PSR sort gate)” value is “low polyreactivity”.

In the case of “QVQLVESGGGLVQAGGSLRLSCAASGFIFYSYTMGWYRQAPGKERELVATISSNGGRTYYADSVKGRFTISRDNAKNTVYLQMNSLKPEDTAVYYCATDVPHGYYWSYGDYYWGQGTQVTVSS”, the “polyreactivity (PSR sort gate)” value is given as “low polyreactivity”. With “QVQLVESGGGLVQAGGSLRLSCAASVYTFPSYVMGWYRQAPGKERELVAAISSGSRTYYADSVKGRFTISRDNAKNTVYLQMNSLKPEDTAVYYCNARGFPGKFGYWGPGTQVTVSS”, the “polyreactivity (PSR sort gate)” value is “high polyreactivity”.
